From PMC2887293 (Protein expression and purification, 2010)
Where no end group is shown, it is not given here. fluorescein = fluorescein label attached at the C-terminus

B1: LSLPPVKLHK-fluorescein (peptide)
peptide: LSLPPVKLHK-fluorescein

Tests used:
… peptide = settings: cited from earlier work
[1] = target: human N-His6-mortalin (Δ1-51) (human, UniProt P38646 52-679); test: fluorescence polarisation
Sequence of human N-His6-mortalin (Δ1-51) (P38646 52-679, stated change not applied): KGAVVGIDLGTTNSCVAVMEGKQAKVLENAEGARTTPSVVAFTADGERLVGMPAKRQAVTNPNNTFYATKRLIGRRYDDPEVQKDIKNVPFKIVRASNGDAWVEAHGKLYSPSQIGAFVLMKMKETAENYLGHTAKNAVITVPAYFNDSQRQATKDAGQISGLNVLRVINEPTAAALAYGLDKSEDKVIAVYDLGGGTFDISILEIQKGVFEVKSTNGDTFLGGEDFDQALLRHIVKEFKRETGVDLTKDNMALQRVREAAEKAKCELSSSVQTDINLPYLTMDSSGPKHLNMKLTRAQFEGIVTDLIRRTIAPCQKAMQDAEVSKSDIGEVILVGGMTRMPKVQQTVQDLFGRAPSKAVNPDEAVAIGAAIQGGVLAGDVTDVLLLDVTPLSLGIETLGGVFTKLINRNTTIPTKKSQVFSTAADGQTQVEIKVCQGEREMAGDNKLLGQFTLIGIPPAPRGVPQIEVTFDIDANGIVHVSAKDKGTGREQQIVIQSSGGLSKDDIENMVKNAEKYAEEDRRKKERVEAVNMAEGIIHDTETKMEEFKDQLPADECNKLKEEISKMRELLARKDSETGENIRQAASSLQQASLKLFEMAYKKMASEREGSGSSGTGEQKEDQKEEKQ

Row | Molecule | Kd (… peptide) [nM] | Kd [1] [nM]
1 | Ssq1 (from UniProt Q05931) | 2800 | –
2 | B1 | – | 1200 ± 100
